# Measured values as given in patent US20050239203, “Regulation of endogenous gene expression in cells using zinc finger proteins” (published 2005).
# B1: endogenous VEGF promoter target region (dsDNA)
# DNA 1: AGCGGGGAGGATCGCGGAGGCTTGG
# DNA 2: CCAAGCCTCCGCGATCCTCCCCGCT
# B2: JVF9/JVF10 VEGF 18-bp target (dsDNA)
# DNA 1: AGCGAGCGGGGAGGATCGCGGAGGCTTGGGGCAGCCGGGTAG
# DNA 2: CGCTCTACCCGGCTGCCCCAAGCCTCCGCGATCCTCCCCGCT
# Assays:
# [1] = test system: SP-1 zinc finger domain (Homo sapiens); experiment: EMSA; conditions: MBP fusion, same conditions; target sequence not given
# Zif268 (Mus musculus) = experiment: EMSA; conditions: MBP fusion, same conditions; target sequence not given
# VEGF1-KRAB = molecular target: T1, VEGF1-KRAB (synthetic, UniProt P08047 SEQ:1-99); experiment: cell_activity; endogenous VEGF ELISA, DFX-treated 293 cells; conditions: tags: SV40 NLS, KRAB (KOX1), FLAG
# T1 chain: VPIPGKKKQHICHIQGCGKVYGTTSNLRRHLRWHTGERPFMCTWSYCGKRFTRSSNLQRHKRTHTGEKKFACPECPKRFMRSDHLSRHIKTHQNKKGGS
# Description: Eighteen hours post transfection, the 293 cells were induced by treatment with 100 μM DFX (desferrioxamine), resulting in a rapid and lasting transcriptional activation of the VEGF gene and also in a gradual increase in VEGF mRNA stability (Ikeda et al., J. Biol. Chem. 270:19761-19766 (1995)). Under routine culture conditions, 293 cells secrete a low level of VEGF in the culture media. The cells were allowed to incubate an additional 24 hours before the supernatants were collected for determination of VEGF levels by an ELISA assay.
# VEGF3a/1 six-finger ZFP [2] = molecular target: T2, VEGF3a/1 six-finger ZFP (synthetic); experiment: EMSA; apparent Kd, 37 C; complex half-life more than 10x longer than VEGF1; conditions: tags: N-terminal MBP fusion; label: 5'-32P
# T2 chain: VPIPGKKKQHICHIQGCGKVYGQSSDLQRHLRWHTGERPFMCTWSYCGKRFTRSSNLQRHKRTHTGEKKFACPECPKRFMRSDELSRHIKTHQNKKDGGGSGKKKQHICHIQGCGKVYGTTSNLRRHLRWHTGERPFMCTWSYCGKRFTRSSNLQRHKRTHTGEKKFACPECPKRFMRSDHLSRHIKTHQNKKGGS
# Description: (§1) For the EMSA studies, 20 μl binding reactions contained 10 fmole (0.5 nM) 5′-³²P-labeled double-stranded target DNA, 35 mM Tris HCl (pH 7.8), 100 mM KCl, 1 mM MgCl₂, 5 mM dithiothreitol, 10% glycerol, 20 μg/ml poly dI-dC, 200 μg/ml bovine serum albumin, and 25 μM ZnCl₂. Protein was added as one fifth volume from a 3-fold dilution series. Binding was allowed to proceed for 60 min at either room temperature or 37° C. Polyacrylamide gel electrophoresis was carried out at room temperature or 37° C. using precast 10% or 10-20% Tris-HCl gels (BioRad) and standard Tris-Glycine runmning buffer. […] Thus, the 18-bp binding ZFP bound with high affinity to its target site. In a parallel experiment, VEGF1 protein was tested against its target using the oligonucleotides described in Example I, yielding an apparent Kd of approximately 2.5 nM.
# The apparent Kd is a useful measure of the affinity of a protein for its DNA target. However, for a DNA binding site either in vitro or in vivo, its occupancy is determined to a large extent by the off-rate of the DNA-binding protein. The conditions for EMSA were as described above; binding and electrophoresis were performed at 37° C. […] Thus, under these in vitro conditions, the occupancy of the target site is much higher for the 18-bp binding protein than for the 9-bp binding protein.
# VEGF3a/1 six-finger ZFP [3] = molecular target: T2, VEGF3a/1 six-finger ZFP; experiment: EMSA; apparent Kd, room temperature, 25 uM ZnCl2, poly dI-dC; conditions: tags: N-terminal MBP fusion; label: 5'-32P
# Description: as §1
molecule,measurement,setting,value
SP-1 target (sequence not stated),Kd,[1],65 nM
Zif268 target (sequence not stated),Kd,Zif268 (Mus musculus),60 nM
B1,activity,VEGF1-KRAB,2 fold repression
B2,Kd,VEGF3a/1 six-finger ZFP [2],~9 nM
same,Kd,VEGF3a/1 six-finger ZFP [3],~1.5 nM
